These results are taken from US20200385439A1.

Ends that are not written are not given here.

Common to all, as to assay: cell-based or functional assay
The target of experiment [1] is rat glucagon receptor (rat) (UniProt P30082).
Experiment [2] deals with mouse glucagon receptor (mouse) (UniProt Q61606).
The target in experiment [3] is mouse GLP1 receptor (mouse) (UniProt O35659).
Experiment [4] addresses cynomolgus monkey glucagon receptor (cynomolgus monkey).
The target of experiment [5] is human glucagon receptor (human) (UniProt P47871).
The target of experiment [6] is rhesus monkey Y2 receptor (rhesus monkey) (UniProt Q9GK74).
In experiment [7] the target is mouse Y2 receptor (mouse) (UniProt P97295).
Experiment [8] addresses human Y1 receptor (human) (UniProt P25929).
Another experiment addresses CRHR2.
A further experiment concerns the target CRHR1.
The target in experiment [9] is cynomolgus monkey GLP1 receptor (cynomolgus monkey) (UniProt F8V479).
A further experiment addresses T1, CALCR.
T1 sequence (P30988 1-474, species assumed, looked up): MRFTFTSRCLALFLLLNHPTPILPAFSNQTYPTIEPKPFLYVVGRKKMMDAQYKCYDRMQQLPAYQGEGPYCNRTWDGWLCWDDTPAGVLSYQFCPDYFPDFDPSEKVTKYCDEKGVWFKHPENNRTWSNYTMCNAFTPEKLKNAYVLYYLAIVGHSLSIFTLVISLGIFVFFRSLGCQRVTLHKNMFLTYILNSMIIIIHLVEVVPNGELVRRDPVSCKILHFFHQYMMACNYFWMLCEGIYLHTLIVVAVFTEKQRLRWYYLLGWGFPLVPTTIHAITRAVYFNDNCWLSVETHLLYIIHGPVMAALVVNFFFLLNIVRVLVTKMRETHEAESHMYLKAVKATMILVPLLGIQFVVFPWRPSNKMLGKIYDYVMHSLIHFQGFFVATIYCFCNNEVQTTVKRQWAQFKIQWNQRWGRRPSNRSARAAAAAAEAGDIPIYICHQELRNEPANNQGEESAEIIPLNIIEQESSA

rat glucagon receptor (rat), sequence (P30082 27-485): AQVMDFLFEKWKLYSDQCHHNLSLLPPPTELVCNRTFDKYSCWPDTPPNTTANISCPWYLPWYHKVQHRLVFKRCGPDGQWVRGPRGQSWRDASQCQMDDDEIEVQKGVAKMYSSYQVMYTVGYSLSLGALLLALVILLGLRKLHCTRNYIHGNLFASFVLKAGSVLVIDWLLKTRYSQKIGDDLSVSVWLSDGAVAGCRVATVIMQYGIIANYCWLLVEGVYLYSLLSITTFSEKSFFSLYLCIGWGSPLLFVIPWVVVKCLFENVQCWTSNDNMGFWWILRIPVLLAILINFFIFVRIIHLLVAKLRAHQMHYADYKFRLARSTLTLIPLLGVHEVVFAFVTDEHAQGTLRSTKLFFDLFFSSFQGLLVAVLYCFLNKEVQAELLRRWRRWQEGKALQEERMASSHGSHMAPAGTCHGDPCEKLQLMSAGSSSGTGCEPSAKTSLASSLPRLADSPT
mouse glucagon receptor (mouse), sequence (Q61606 27-485): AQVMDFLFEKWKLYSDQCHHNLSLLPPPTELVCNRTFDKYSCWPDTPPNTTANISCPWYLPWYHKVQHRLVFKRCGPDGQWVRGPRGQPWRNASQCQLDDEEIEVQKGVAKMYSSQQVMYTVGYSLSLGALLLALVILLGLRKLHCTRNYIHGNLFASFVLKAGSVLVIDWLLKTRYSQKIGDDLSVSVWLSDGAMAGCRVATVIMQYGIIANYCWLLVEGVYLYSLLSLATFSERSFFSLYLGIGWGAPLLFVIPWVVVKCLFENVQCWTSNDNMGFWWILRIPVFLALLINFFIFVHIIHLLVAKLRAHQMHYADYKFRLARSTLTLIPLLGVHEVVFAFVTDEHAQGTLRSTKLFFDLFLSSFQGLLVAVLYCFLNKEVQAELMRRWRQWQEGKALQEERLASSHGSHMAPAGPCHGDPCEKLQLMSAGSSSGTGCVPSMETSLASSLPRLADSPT
mouse GLP1 receptor (mouse), sequence (O35659 22-463): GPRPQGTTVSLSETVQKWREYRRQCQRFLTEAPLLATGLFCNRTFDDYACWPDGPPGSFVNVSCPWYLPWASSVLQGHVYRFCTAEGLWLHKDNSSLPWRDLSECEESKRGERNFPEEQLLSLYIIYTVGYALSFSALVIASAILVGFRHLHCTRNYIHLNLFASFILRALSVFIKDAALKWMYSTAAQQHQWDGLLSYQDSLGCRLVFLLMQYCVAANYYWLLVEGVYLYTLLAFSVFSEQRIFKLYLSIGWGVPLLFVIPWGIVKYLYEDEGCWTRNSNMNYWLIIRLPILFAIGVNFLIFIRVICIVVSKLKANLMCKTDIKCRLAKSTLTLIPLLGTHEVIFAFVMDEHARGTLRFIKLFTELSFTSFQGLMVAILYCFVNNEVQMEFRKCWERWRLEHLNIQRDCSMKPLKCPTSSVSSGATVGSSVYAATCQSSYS
mouse Y2 receptor (mouse), sequence (P97295 whole entry): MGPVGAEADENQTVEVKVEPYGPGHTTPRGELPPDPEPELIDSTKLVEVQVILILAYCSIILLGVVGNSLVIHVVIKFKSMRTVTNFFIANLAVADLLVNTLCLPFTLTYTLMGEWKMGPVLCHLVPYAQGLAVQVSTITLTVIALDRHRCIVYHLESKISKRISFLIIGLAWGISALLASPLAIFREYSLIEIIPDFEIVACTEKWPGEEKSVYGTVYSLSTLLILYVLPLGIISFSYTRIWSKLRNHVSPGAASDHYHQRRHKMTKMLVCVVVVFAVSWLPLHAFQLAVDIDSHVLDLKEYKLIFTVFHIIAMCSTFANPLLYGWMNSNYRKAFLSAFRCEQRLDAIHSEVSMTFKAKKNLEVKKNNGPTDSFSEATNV
rhesus monkey Y2 receptor (rhesus monkey), sequence (Q9GK74 whole entry): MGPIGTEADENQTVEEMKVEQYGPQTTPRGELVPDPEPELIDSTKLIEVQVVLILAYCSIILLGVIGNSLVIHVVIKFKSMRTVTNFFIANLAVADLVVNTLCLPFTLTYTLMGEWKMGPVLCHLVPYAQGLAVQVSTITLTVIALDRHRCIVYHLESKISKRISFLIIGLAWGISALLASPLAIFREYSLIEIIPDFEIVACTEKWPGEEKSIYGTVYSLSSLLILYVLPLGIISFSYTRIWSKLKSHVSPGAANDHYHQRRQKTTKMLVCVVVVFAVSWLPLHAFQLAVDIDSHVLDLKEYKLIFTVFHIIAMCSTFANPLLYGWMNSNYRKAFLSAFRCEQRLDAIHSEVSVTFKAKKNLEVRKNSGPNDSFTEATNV
human Y1 receptor (human), sequence (P25929 whole entry): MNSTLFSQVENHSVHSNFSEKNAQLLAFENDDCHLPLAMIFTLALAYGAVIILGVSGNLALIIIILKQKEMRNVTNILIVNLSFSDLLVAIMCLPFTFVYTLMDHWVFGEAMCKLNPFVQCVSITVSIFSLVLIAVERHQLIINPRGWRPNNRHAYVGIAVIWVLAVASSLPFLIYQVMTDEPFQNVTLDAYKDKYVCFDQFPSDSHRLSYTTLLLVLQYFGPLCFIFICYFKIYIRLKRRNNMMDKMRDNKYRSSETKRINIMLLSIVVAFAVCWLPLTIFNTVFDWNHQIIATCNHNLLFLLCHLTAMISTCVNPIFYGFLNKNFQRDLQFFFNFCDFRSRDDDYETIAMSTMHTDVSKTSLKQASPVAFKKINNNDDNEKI
human glucagon receptor (human), sequence (P47871 26-477): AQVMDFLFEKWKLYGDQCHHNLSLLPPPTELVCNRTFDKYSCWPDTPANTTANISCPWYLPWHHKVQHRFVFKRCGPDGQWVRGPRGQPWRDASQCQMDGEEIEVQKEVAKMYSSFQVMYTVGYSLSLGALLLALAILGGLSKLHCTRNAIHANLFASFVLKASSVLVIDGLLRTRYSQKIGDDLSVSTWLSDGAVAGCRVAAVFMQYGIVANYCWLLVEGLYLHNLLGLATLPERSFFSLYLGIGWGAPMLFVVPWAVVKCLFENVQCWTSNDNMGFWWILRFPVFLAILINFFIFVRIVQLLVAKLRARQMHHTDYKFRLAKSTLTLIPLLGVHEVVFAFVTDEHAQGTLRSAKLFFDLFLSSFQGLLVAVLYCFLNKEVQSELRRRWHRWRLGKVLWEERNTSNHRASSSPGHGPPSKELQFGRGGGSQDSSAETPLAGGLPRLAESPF

Regarding Dulaglutide (Fc fusion), the EC50, receptor cAMP assay is more than 100 nM in experiment [1]; more than 100 nM in experiment [2]; 0.035 nM in experiment [3]; more than 100 nM in [4]; more than 100 nM in experiment [5].
“PYY3-36 (from UniProt P10082 31-64) (peptide)”: the results for the EC50, cAMP assay (LANCE) on receptor-expressing cells in [6], in experiment [7] and in experiment [8] were 0.06 nM, 0.03 nM and 66.4 nM, respectively.
For Sauvagine (peptide), the RC50, cAMP assay with CRHR2 is 0.0034 µM; with CRHR1, 0.000308 µM.
On to Sauvagine (peptide; unit assumed), for which the Max response, cAMP assay with CRHR2 amounted to 107%; with CRHR1, 106%.
On to “Ser-8 GLP1 (from UniProt P01275 98-127) (peptide)”, for which the EC50, receptor cAMP assay in experiment [1] was more than 100 nM; in experiment [2] it was more than 100 nM; in [9], 0.08 nM; in [3], 0.06 nM; in [4], more than 100 nM.

B1: Calcitonin (peptide, UniProt P01258 85-116, looked up, species assumed)
Calcitonin: CGNLSTCMLGTYTQDFNKFHTFPQTAIGVGAP
modifications: ends and bridges not checked; cysteine pairing not given here
In the case of B1, in the experiment with CALCR, the Max response, cAMP assay was 101% and the RC50, cAMP assay was 0.000776 µM.
